Results published in US20220356256A1 (published 2022).

Tests used:
Assay in all cases: IF staining, CHO cells
[1] = molecular target: T1, FZD3 expressed on CHO cells (UniProt Q9NPG1 23-136, limits assumed)
T1 construct: As m62
T1 sequence (looked up): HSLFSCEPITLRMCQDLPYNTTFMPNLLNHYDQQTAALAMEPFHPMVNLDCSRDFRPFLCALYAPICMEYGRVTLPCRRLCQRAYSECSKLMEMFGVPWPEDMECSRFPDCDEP

[2] = molecular target: T2, FZD6 expressed on CHO cells (UniProt O60353 19-132, limits assumed)
T2 construct: As m62
T2 sequence (looked up): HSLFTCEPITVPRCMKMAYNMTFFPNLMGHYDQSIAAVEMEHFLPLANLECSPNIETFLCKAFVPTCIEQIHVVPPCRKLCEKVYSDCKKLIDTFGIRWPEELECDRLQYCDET

[3] = molecular target: T3, FZD10 expressed on CHO cells (UniProt Q9ULW2 29-150, limits assumed)
T3 construct: As m62
T3 sequence (looked up): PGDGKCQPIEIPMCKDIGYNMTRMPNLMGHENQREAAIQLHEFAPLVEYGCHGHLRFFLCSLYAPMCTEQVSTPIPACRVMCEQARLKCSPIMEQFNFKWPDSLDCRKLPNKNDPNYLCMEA

Measured: binding result

B1: Fab 5017 (Fab, V domains shown)
VH: EVQLVESGGGLVQPGGSLRLSCAASGFNLYYTDMHWVRQAPGKGLEWVASISLFFGYVSYADSVKGRFTISADTSKNTAYLQMNSLRAEDTAVYYCARYLAMDYWGQGTLVTVSS
VL: DIQMTQSPSSLSASVGDRVTITCRASQSVSSAVAWYQQKPGKAPKLLIYSASSLYSGVPSRFSGSRSGTDFTLTISSLQPEDFATYYCQQAAYHWPPLFTFGQGTKVEIKR
notes: Tested as purified Fab; also called 4A1
no binding: all assays above
